Reference: patent publication US12679878B2, “CRF2 receptor agonists and their use in therapy” (SANOFI, priority 2020, dated 2026)
Starred links: 1 amine or outer side, 2 acyl side, 3 side chain; linkers in the order of their positions; H or OH if unused. Non-standard residues stand in square brackets, D forms with d. Groups on a side chain read outwards from the residue. No end group written: not given here. *: point of attachment. C18 diacid = O=C(O)CCCCCCCCCCCCCCCCC(=O)*; γGlu = O=C(O)[C@H](CCC(=O)[*:2])N[*:1]; AEEA = NCCOCCOCC(=O)O; Aib = CC(C)(N)C(=O)O

B1: peptide of SEQ ID NO: 134 (peptide)
peptide: IVLSLD[dV]PIKLK([AEEA-AEEA-γGlu-C18 diacid])QILLKQERQK[Aib]QREKAEKNKQILAQV-NH2
modifications: N-terminus assumed
SMILES: CC[C@H](C)[C@H](N)C(=O)N[C@H](C(=O)N[C@@H](CC(C)C)C(=O)N[C@@H](CO)C(=O)N[C@@H](CC(C)C)C(=O)N[C@@H](CC(=O)O)C(=O)N[C@@H](C(=O)N1CCC[C@H]1C(=O)N[C@H](C(=O)N[C@@H](CCCCN)C(=O)N[C@@H](CC(C)C)C(=O)N[C@@H](CCCCNC(=O)COCCOCCNC(=O)COCCOCCNC(=O)CC[C@H](NC(=O)CCCCCCCCCCCCCCCCC(=O)O)C(=O)O)C(=O)N[C@@H](CCC(N)=O)C(=O)N[C@H](C(=O)N[C@@H](CC(C)C)C(=O)N[C@@H](CC(C)C)C(=O)N[C@@H](CCCCN)C(=O)N[C@@H](CCC(N)=O)C(=O)N[C@@H](CCC(=O)O)C(=O)N[C@@H](CCCNC(=N)N)C(=O)N[C@@H](CCC(N)=O)C(=O)N[C@@H](CCCCN)C(=O)NC(C)(C)C(=O)N[C@@H](CCC(N)=O)C(=O)N[C@@H](CCCNC(=N)N)C(=O)N[C@@H](CCC(=O)O)C(=O)N[C@@H](CCCCN)C(=O)N[C@@H](C)C(=O)N[C@@H](CCC(=O)O)C(=O)N[C@@H](CCCCN)C(=O)N[C@@H](CC(N)=O)C(=O)N[C@@H](CCCCN)C(=O)N[C@@H](CCC(N)=O)C(=O)N[C@H](C(=O)N[C@@H](CC(C)C)C(=O)N[C@@H](C)C(=O)N[C@@H](CCC(N)=O)C(=O)N[C@H](C(N)=O)C(C)C)[C@@H](C)CC)[C@@H](C)CC)[C@@H](C)CC)C(C)C)C(C)C
B2: peptide of SEQ ID NO: 123 (peptide)
peptide: IVLSLDVPIKLK([AEEA-AEEA-γGlu-C18 diacid])QILLEQARQK[Aib]QRAQAEKNKRILERV-NH2
modifications: N-terminus assumed
SMILES: CC[C@H](C)[C@H](N)C(=O)N[C@H](C(=O)N[C@@H](CC(C)C)C(=O)N[C@@H](CO)C(=O)N[C@@H](CC(C)C)C(=O)N[C@@H](CC(=O)O)C(=O)N[C@H](C(=O)N1CCC[C@H]1C(=O)N[C@H](C(=O)N[C@@H](CCCCN)C(=O)N[C@@H](CC(C)C)C(=O)N[C@@H](CCCCNC(=O)COCCOCCNC(=O)COCCOCCNC(=O)CC[C@H](NC(=O)CCCCCCCCCCCCCCCCC(=O)O)C(=O)O)C(=O)N[C@@H](CCC(N)=O)C(=O)N[C@H](C(=O)N[C@@H](CC(C)C)C(=O)N[C@@H](CC(C)C)C(=O)N[C@@H](CCC(=O)O)C(=O)N[C@@H](CCC(N)=O)C(=O)N[C@@H](C)C(=O)N[C@@H](CCCNC(=N)N)C(=O)N[C@@H](CCC(N)=O)C(=O)N[C@@H](CCCCN)C(=O)NC(C)(C)C(=O)N[C@@H](CCC(N)=O)C(=O)N[C@@H](CCCNC(=N)N)C(=O)N[C@@H](C)C(=O)N[C@@H](CCC(N)=O)C(=O)N[C@@H](C)C(=O)N[C@@H](CCC(=O)O)C(=O)N[C@@H](CCCCN)C(=O)N[C@@H](CC(N)=O)C(=O)N[C@@H](CCCCN)C(=O)N[C@@H](CCCNC(=N)N)C(=O)N[C@H](C(=O)N[C@@H](CC(C)C)C(=O)N[C@@H](CCC(=O)O)C(=O)N[C@@H](CCCNC(=N)N)C(=O)N[C@H](C(N)=O)C(C)C)[C@@H](C)CC)[C@@H](C)CC)[C@@H](C)CC)C(C)C)C(C)C
B3: peptide of SEQ ID NO: 124 (peptide)
peptide: IVLSLDVPIKLK([AEEA-AEEA-γGlu-C18 diacid])QILLKQARQK[Aib]QRAQAEKNKRILERV-NH2
modifications: N-terminus assumed
SMILES: CC[C@H](C)[C@H](N)C(=O)N[C@H](C(=O)N[C@@H](CC(C)C)C(=O)N[C@@H](CO)C(=O)N[C@@H](CC(C)C)C(=O)N[C@@H](CC(=O)O)C(=O)N[C@H](C(=O)N1CCC[C@H]1C(=O)N[C@H](C(=O)N[C@@H](CCCCN)C(=O)N[C@@H](CC(C)C)C(=O)N[C@@H](CCCCNC(=O)COCCOCCNC(=O)COCCOCCNC(=O)CC[C@H](NC(=O)CCCCCCCCCCCCCCCCC(=O)O)C(=O)O)C(=O)N[C@@H](CCC(N)=O)C(=O)N[C@H](C(=O)N[C@@H](CC(C)C)C(=O)N[C@@H](CC(C)C)C(=O)N[C@@H](CCCCN)C(=O)N[C@@H](CCC(N)=O)C(=O)N[C@@H](C)C(=O)N[C@@H](CCCNC(=N)N)C(=O)N[C@@H](CCC(N)=O)C(=O)N[C@@H](CCCCN)C(=O)NC(C)(C)C(=O)N[C@@H](CCC(N)=O)C(=O)N[C@@H](CCCNC(=N)N)C(=O)N[C@@H](C)C(=O)N[C@@H](CCC(N)=O)C(=O)N[C@@H](C)C(=O)N[C@@H](CCC(=O)O)C(=O)N[C@@H](CCCCN)C(=O)N[C@@H](CC(N)=O)C(=O)N[C@@H](CCCCN)C(=O)N[C@@H](CCCNC(=N)N)C(=O)N[C@H](C(=O)N[C@@H](CC(C)C)C(=O)N[C@@H](CCC(=O)O)C(=O)N[C@@H](CCCNC(=N)N)C(=O)N[C@H](C(N)=O)C(C)C)[C@@H](C)CC)[C@@H](C)CC)[C@@H](C)CC)C(C)C)C(C)C
B4: peptide of SEQ ID NO: 125 (peptide)
peptide: IVLSLDVPIKLK([AEEA-AEEA-γGlu-C18 diacid])QILLEQARQK[Aib]QREQAEKNKRILERV-NH2
modifications: N-terminus assumed
SMILES: CC[C@H](C)[C@H](N)C(=O)N[C@H](C(=O)N[C@@H](CC(C)C)C(=O)N[C@@H](CO)C(=O)N[C@@H](CC(C)C)C(=O)N[C@@H](CC(=O)O)C(=O)N[C@H](C(=O)N1CCC[C@H]1C(=O)N[C@H](C(=O)N[C@@H](CCCCN)C(=O)N[C@@H](CC(C)C)C(=O)N[C@@H](CCCCNC(=O)COCCOCCNC(=O)COCCOCCNC(=O)CC[C@H](NC(=O)CCCCCCCCCCCCCCCCC(=O)O)C(=O)O)C(=O)N[C@@H](CCC(N)=O)C(=O)N[C@H](C(=O)N[C@@H](CC(C)C)C(=O)N[C@@H](CC(C)C)C(=O)N[C@@H](CCC(=O)O)C(=O)N[C@@H](CCC(N)=O)C(=O)N[C@@H](C)C(=O)N[C@@H](CCCNC(=N)N)C(=O)N[C@@H](CCC(N)=O)C(=O)N[C@@H](CCCCN)C(=O)NC(C)(C)C(=O)N[C@@H](CCC(N)=O)C(=O)N[C@@H](CCCNC(=N)N)C(=O)N[C@@H](CCC(=O)O)C(=O)N[C@@H](CCC(N)=O)C(=O)N[C@@H](C)C(=O)N[C@@H](CCC(=O)O)C(=O)N[C@@H](CCCCN)C(=O)N[C@@H](CC(N)=O)C(=O)N[C@@H](CCCCN)C(=O)N[C@@H](CCCNC(=N)N)C(=O)N[C@H](C(=O)N[C@@H](CC(C)C)C(=O)N[C@@H](CCC(=O)O)C(=O)N[C@@H](CCCNC(=N)N)C(=O)N[C@H](C(N)=O)C(C)C)[C@@H](C)CC)[C@@H](C)CC)[C@@H](C)CC)C(C)C)C(C)C
B5: peptide of SEQ ID NO: 126 (peptide)
peptide: IVLSLD[dV]PIKLK([AEEA-AEEA-γGlu-C18 diacid])QILLEQAKQK[Aib]QRAQAEKNKRILERV-NH2
modifications: N-terminus assumed
SMILES: CC[C@H](C)[C@H](N)C(=O)N[C@H](C(=O)N[C@@H](CC(C)C)C(=O)N[C@@H](CO)C(=O)N[C@@H](CC(C)C)C(=O)N[C@@H](CC(=O)O)C(=O)N[C@@H](C(=O)N1CCC[C@H]1C(=O)N[C@H](C(=O)N[C@@H](CCCCN)C(=O)N[C@@H](CC(C)C)C(=O)N[C@@H](CCCCNC(=O)COCCOCCNC(=O)COCCOCCNC(=O)CC[C@H](NC(=O)CCCCCCCCCCCCCCCCC(=O)O)C(=O)O)C(=O)N[C@@H](CCC(N)=O)C(=O)N[C@H](C(=O)N[C@@H](CC(C)C)C(=O)N[C@@H](CC(C)C)C(=O)N[C@@H](CCC(=O)O)C(=O)N[C@@H](CCC(N)=O)C(=O)N[C@@H](C)C(=O)N[C@@H](CCCCN)C(=O)N[C@@H](CCC(N)=O)C(=O)N[C@@H](CCCCN)C(=O)NC(C)(C)C(=O)N[C@@H](CCC(N)=O)C(=O)N[C@@H](CCCNC(=N)N)C(=O)N[C@@H](C)C(=O)N[C@@H](CCC(N)=O)C(=O)N[C@@H](C)C(=O)N[C@@H](CCC(=O)O)C(=O)N[C@@H](CCCCN)C(=O)N[C@@H](CC(N)=O)C(=O)N[C@@H](CCCCN)C(=O)N[C@@H](CCCNC(=N)N)C(=O)N[C@H](C(=O)N[C@@H](CC(C)C)C(=O)N[C@@H](CCC(=O)O)C(=O)N[C@@H](CCCNC(=N)N)C(=O)N[C@H](C(N)=O)C(C)C)[C@@H](C)CC)[C@@H](C)CC)[C@@H](C)CC)C(C)C)C(C)C
B6: peptide of SEQ ID NO: 148 (peptide)
peptide: IVLSLDVPIGLK([AEEA-AEEA-γGlu-C18 diacid])QILLKQERQKK[Aib]REQAETNKRILERV-NH2
modifications: N-terminus assumed
SMILES: CC[C@H](C)[C@H](N)C(=O)N[C@H](C(=O)N[C@@H](CC(C)C)C(=O)N[C@@H](CO)C(=O)N[C@@H](CC(C)C)C(=O)N[C@@H](CC(=O)O)C(=O)N[C@H](C(=O)N1CCC[C@H]1C(=O)N[C@H](C(=O)NCC(=O)N[C@@H](CC(C)C)C(=O)N[C@@H](CCCCNC(=O)COCCOCCNC(=O)COCCOCCNC(=O)CC[C@H](NC(=O)CCCCCCCCCCCCCCCCC(=O)O)C(=O)O)C(=O)N[C@@H](CCC(N)=O)C(=O)N[C@H](C(=O)N[C@@H](CC(C)C)C(=O)N[C@@H](CC(C)C)C(=O)N[C@@H](CCCCN)C(=O)N[C@@H](CCC(N)=O)C(=O)N[C@@H](CCC(=O)O)C(=O)N[C@@H](CCCNC(=N)N)C(=O)N[C@@H](CCC(N)=O)C(=O)N[C@@H](CCCCN)C(=O)N[C@@H](CCCCN)C(=O)NC(C)(C)C(=O)N[C@@H](CCCNC(=N)N)C(=O)N[C@@H](CCC(=O)O)C(=O)N[C@@H](CCC(N)=O)C(=O)N[C@@H](C)C(=O)N[C@@H](CCC(=O)O)C(=O)N[C@H](C(=O)N[C@@H](CC(N)=O)C(=O)N[C@@H](CCCCN)C(=O)N[C@@H](CCCNC(=N)N)C(=O)N[C@H](C(=O)N[C@@H](CC(C)C)C(=O)N[C@@H](CCC(=O)O)C(=O)N[C@@H](CCCNC(=N)N)C(=O)N[C@H](C(N)=O)C(C)C)[C@@H](C)CC)[C@@H](C)O)[C@@H](C)CC)[C@@H](C)CC)C(C)C)C(C)C

Biological target: T1, CRF1R receptor (anti-target) (UniProt P34998 24-415, limits assumed)
T1 sequence (looked up): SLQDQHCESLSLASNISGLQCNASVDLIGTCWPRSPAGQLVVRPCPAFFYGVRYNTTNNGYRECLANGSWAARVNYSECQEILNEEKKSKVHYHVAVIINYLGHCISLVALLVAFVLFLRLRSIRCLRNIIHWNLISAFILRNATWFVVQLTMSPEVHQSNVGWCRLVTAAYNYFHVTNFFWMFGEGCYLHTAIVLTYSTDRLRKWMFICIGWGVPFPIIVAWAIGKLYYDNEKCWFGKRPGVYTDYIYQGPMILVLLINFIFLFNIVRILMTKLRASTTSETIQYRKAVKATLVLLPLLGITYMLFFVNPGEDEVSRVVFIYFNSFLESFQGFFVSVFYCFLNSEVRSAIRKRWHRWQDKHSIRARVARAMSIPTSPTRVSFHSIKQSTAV
Test: cell-based or functional assay

Binder	EC50 [nM] 0% HSA (cAMP, HTRF)	Emax (%) (100% = Sauvagine at 100 nM)
B1	> 100 nM	-8.6%
B2	> 100 nM	9%
B3	> 100 nM	-2.5%
B4	> 100 nM	17.7%
B5	> 100 nM	36.5%
B6	> 100 nM	2.6%
